Patent publication US20240150411A1 (University of Washington, published 2024)

Target: T1, I53-50A trimer
T1 construct: also called trimeric I53-50A
T1 chain: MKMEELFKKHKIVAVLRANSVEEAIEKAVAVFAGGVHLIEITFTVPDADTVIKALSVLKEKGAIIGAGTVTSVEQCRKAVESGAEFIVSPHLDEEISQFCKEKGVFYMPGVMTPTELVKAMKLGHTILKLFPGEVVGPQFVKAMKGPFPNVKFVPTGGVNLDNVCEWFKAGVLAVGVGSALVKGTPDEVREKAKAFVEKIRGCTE
Experiment: in vitro co-assembly into partial valency nanostructures, purified by size exclusion chromatography

B1: I53-50B.4PosT1 pentamer (designed binder)
chain: MNQHSHKDHETVRIAVVRARWHAEIVDACVSAFEAAMRDIGGDRFAVDVFDVPGAYEIPLHARTLAETGRYGAVLGTAFVVNGGIYRHEFVASAVINGMMNVQLNTGVPVLSAVLTPHNYDKSKAHTLLFLALFAVKGMEAARACVEILAAREKIAA
notes: Expressed and purified as in Bale et al; also called I53-50B.4PT1; I53-50B.4PosT1 pentamers
B1: binds.
